Test results taken from publication PMC4877050.

Target: wild-type Bcl-xL (mouse full-length, adenovirus-expressed) (mouse) (UniProt Q64373)
Assay: native gel or EMSA; Blue Native PAGE (4-16% Bis-Tris) of the mitochondrial fraction of adenovirus-transduced TKPTS cells, extracted with 1% n-dodecyl-β-D-maltoside; blots probed for Bcl-xL, then Bax

“wild-type Bcl-xL (mouse full-length, adenovirus-expressed) (from UniProt Q64373-1 1-233) (natural protein)” showed a stoichiometry N of 2.
